In the series the test system is HpaII restriction endonuclease (R.HpaII) (Haemophilus parainfluenzae ATCC 49669). Description: cleavage_in_vitro. The conditions noted are these: IPTG-induced E. coli extract; 1x REact 8 buffer, 30 min 37 C; HpaII digest pattern on agarose gel.

Bounds are passed on as bounds.

Regarding phage lambda DNA, the activity (units per g wet cells) was above 50000.

These data come from patent US5248605.
